In article PMC6404601:
Values joined by “and” are separate entries in the source; they are usually repeats but may differ in a detail not shown here. Equal entries are not always repeated.

Biological target: YFP^C-Rho5 or YFP^C-Rho5^G12V
Test: split reporter (BiFC, NanoBiT); BiFC of candidate VN fusions with YFP^C fusions of WT or mutant Rho5 (G12V, K16N) in living yeast cells; z-stack fluorescence microscopy at 22-25°; for Atg21-VN signals quantified above a threshold set from a strain with untagged Rho5

Atg21-VN (Atg21 tagged with VN, the N-terminal fragment of Venus) (from UniProt Q02887 1-496) (natural protein)
percent of cells with YFP signal above threshold: 40 % of cells and 62 % of cells
